Experimental data: publication PMC3578875

Biological target: human mu opioid receptor, N-terminally his-tagged (human) (UniProt P35372)
Assay: SPR; Biacore-X, 25°C; OPRM captured on a Ni-NTA sensor chip (about 4000 RU), second cell as reference; running Buffer B (5 mM NaHPO4, 10% glycerol, 0.07% Fos-12, pH 7.5); EM-1 injected at 10, 30, 50, 60, 80, 100 nM, 5 µl/min, no regeneration; 1:1 interaction model

UniProt P35372, sequence (P35372 whole entry): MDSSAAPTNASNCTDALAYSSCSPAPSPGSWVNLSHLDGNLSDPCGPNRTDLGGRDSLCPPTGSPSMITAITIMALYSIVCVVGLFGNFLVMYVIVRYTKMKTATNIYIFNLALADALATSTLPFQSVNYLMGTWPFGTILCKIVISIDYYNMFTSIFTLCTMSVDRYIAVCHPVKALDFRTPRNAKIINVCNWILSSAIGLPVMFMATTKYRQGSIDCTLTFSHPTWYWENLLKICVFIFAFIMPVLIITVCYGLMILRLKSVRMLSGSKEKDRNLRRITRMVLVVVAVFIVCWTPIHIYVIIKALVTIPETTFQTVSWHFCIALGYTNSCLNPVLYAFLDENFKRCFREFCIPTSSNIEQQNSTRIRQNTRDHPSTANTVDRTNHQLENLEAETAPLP

- Kd: 60.9 nM
Substance: endomorphin-1 (peptide)
